Laboratory results reported in patent US20180221438A1, “MODULATING URACIL-DNA GLYCOSYLASE AND USES THEREOF” (Adaerata Limited Partnership, priority 2015, published 2018).

Columns and labels:
CH12F3 cells [1] = experiment: FISH of metaphase chromosomes for sister telomere loss (STL) in CH12F3 cells; assay type: cell-based, mouse
Experimental: B cell lymphoma cells, CH12F3-2 cells, were cultured in RPMI medium supplemented with 10% FBS, 0.05% 2- mercaptoethanol and 5% NCTC 109 (Sigma). CH12F3-2 cells stably expressing Ugi were obtained by retroviral delivery using pMIG vector as described before ^39. Class switching induction to IgA in CH12F3-2 cells was performed as previously published ^39. CSR to IgA in CH12F3-2 cells was determined with an Accuri C6™ Flow Cytometer (BD Biosciences). Mouse B cells were purified from freshly isolated splenocytes using anti-CD43 magnetic beads as described ^70. CSR was induced using 5 ? g/ml LPS (Sigma) and 20 ng/ml IL-4 (Preprotech). Cells were harvested for ChIP or metaphase spreads and FISH at 24 h post stimulation.
For metaphase analysis cells were incubated with 50 ng/ml colcemide in cell culture media for 3 hours, harvested by trypsinization, incubated for 10 min at RT in 75 mM KCl, and fixed in freshly prepared methanol:glacial acetic acid (3:1 v/v). Cells were stored at 4° C. and when needed dropped onto wet slides and air-dried. For FISH analysis of the metaphases the cells were pre-treated with 0.05% w/v pepsin in 10 mM HCl during 10 minutes at 37° C. […] Finally, the samples were analyzed as described above. […]

CH12F3 cells [2] = experiment: Terminal restriction fragment (TRF) analysis of telomeric DNA in CH12F3 cells; assay type: cell-based, mouse; details: CH12F3 Ugi cells
CH12F3 cells [3] = experiment: Anaphase bridges by DAPI staining in CH12F3 cells expressing E6 and E7; assay type: cell-based, mouse; details: CH12F3 Ugi with E6 and E7, vs CH12F3 Ugi shAID and control GFP cells
Source text: Anaphase cells were visualized by DAPI staining of cells fixed with 2% paraformaldehyde in 1X PBS and attached to slides pre-treated with poly-lysine and analyzed as described previously ^33.

human DLBCL cell lines = experiment: Growth curves of human DLBCL cell lines; assay type: cell-based; details: DLBCL AID+ (Ocy-Ly3, Ocy-Ly10) and AID− (Ocy-Ly7, Ocy-Ly8) lines expressing Ugi
Experimental: Stable shRNA-mediated knockdowns were generated in CH12F3-2 cells following protocols from the RNAi Consortium (TRC). Transfected cells were selected with puromycin at 1 μg/ml final concentration. For double knockdowns, CH12F3-2 cells were first transfected with a pLKO.1 neomycin version of the shRNA (shAID or shGFP) and selected, then transduced with the second shRNA and selected again with puromycin before analysis. CH12F3 Ugi cells transduced with pMIG-Ugi-IRES-GFP were generated as described ^39, and human lymphoma Ugi cells were generated by retroviral delivery using a pLPC-PURO system (pLPC-Ugi-PURO) and transduced cells were selected with 1 ug/m1 of puromycin. The Ugi protein from bacteriophage PBS2 and its ability to inhibit eukaryotic UNG have been described ^69,31.
The inventors therefore stratified human DLBCL cell lines on the basis of their AID protein levels into high (DLBCL AID^+) (Ocy-Ly3 and Ocy-Ly10 in FIG. 13A) or low expressing (DLBCL AID^−) lines (Ocy-Ly7 and Ocy-Ly8 in FIG. 13A) and established derivatives expressing Ugi for each one.

DLBCL cells = experiment: Metaphases with STL in DLBCL lines; assay type: cell-based, human; details: DLBCL lines expressing GFP or Ugi, and AID or shAID
Experimental: For metaphase analysis cells were incubated with 50 ng/ml colcemide in cell culture media for 3 hours, harvested by trypsinization, incubated for 10 min at RT in 75 mM KCl, and fixed in freshly prepared methanol:glacial acetic acid (3:1 v/v). Cells were stored at 4° C. and when needed dropped onto wet slides and air-dried. For FISH analysis of the metaphases the cells were pre-treated with 0.05% w/v pepsin in 10 mM HCl during 10 minutes at 37° C. After washes with 1X PBS, cells were fixed with 1% formaldehyde in 1X PBS during 10 minutes at RT, washed again with 1X PBS and dehydrated with ethanol series (70-90-100%, 2 min each at RT) and air-dried ON. Then, cells were denatured with hybridization solution (70% deionized formamide; 2.5% 50× Denhardt solution; 10 mM Tris pH 7.5; 1.5 mM MgCl2) containing Alexa488-conjugated PNA probe (Alexa488-OO-(CCCTAA)3) 2 min at 80° C. on a heat block. After 4 hours incubation at RT in the dark, the samples were washed twice with wash solution (70% deionized formamide and 10 mM Tris-HCl [pH 7.2]) at RT and then twice with PBS. For DAPI staining of DNA, slides with metaphase spreads were incubated 10 min in 0.5 ? g/ml 4′, 6-diamino-2-phenylindole (DAPI) (Sigma) in PBS, washed with PBS for 2 min, and mounted in SlowFade™ Gold antifade mounting reagent (Life Technologies). Finally, the samples were analyzed as described above. […]

E. coli UNG = E. coli UNG (Escherichia coli, UniProt P12295); details: cited from earlier work
E. coli UNG, sequence (P12295 whole entry): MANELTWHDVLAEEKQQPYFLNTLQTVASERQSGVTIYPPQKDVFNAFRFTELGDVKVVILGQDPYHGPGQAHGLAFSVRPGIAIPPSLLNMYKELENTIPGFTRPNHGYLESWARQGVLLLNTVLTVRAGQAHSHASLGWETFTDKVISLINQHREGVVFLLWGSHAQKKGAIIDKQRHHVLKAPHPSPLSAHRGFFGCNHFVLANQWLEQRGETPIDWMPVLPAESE

B1: Ugi: Uracil Glycosylase Inhibitor of Bacillus subtilis bacteriophage PBS1/PBS2, small protein (9.5 kDa), SEQ ID NO: 29; expressed in cells by retroviral delivery (protein)
chain: MTNLSDIIEKETGKQLVIQESILMLPEEVEEVIGNKPESDILVHTAYDESTDENVMLLTSDAPEYKPWALVIQDSNGENKIKML
modifications: bacillus subtilis
notes: expressed in cells by retroviral delivery
STL (CH12F3 cells [1]; CH12F3 Ugi cells expressing human AID, without inducing class switching, vs CH12F3 GFP): significant increase in STL | metaphase chromosomes with STL (CH12F3 cells [1]; activated CH12F3 cells expressing Ugi vs CH12F3 cells expressing GFP alone): significant increase in metaphase chromosomes with STL | intra-telomeric G-rich single-stranded DNA (CH12F3 cells [2]; DNA treated with exonuclease before TRF analysis): MSH2-dependent increase in intra-telomeric G-rich single-stranded DNA | telomere G-rich 3′ overhang signal (CH12F3 cells [2]; terminal restriction fragment analysis): normal telomere G-rich 3′ overhang signal | anaphase bridges (CH12F3 cells [3]): significantly accumulated anaphase bridges | growth of DLBCL cells (human DLBCL cell lines): only impaired the growth of DLBCL AID+ cells | number of metaphases with STL (DLBCL cells): significant increase in the number of metaphases with STL only when DLBCL cells expressed AID and Ugi but not with Ugi alone | inhibition of UNG (E. coli UNG): inhibits E. coli UNG as well as UNG from other species
